Measurements published in the Immune Epitope Database (IEDB).

The sequences below were run against HLA-A*02:01 (assay: IEDB peptide-MHC binding, purified MHC/competitive/radioactivity; ≥ and ≤ were set here for values at or beyond the usual limits of such assays). Conditions: source organism: Influenza A virus.

| Sequence | IC50 [nM] |
| --- | --- |
| QLMWALGENMA | 848 |
| LLFLKVPA | 266 |

Same assay, conditions: source organism: Mammarenavirus brazilense

| Sequence | IC50 [nM] |
| --- | --- |
| ALTSLGLLYT | 593 |
| FQLIFFLTLA | 229 |
| ALIAVSLIAA | 28 |

Same assay, conditions: source organism: Mammarenavirus choriomeningitidis

| Sequence | IC50 [nM] |
| --- | --- |
| YLISIFLHLV | 5.8 |
| YIACRTSIV | 46 |

Same assay, conditions: source organism: Mammarenavirus juninense

| Sequence | IC50 [nM] |
| --- | --- |
| GLHTEFQTV | 129 |
| FMISFDDIAV | 5.4 |
| GLFQFFVFL | 495 |

Same assay, conditions: source organism: Mammarenavirus lassaense

| Sequence | IC50 [nM] |
| --- | --- |
| ALMDCIMFDA | 1.1 |
| SLQSAGFTA | 1250 |
| LMDCIMFDAA | 595 |
| RLLGTFTWTL | 5.1 |

Same assay, conditions: source organism: Mammarenavirus machupoense

| Sequence | IC50 [nM] |
| --- | --- |
| FTASLFLHLV | 75 |
| VLSYVIGLL | 210 |
| GLYMGNLSQL | 72 |
| EALNIALVAV | 341 |

Same assay, conditions: source organism: Mammarenavirus whitewaterense

| Sequence | IC50 [nM] |
| --- | --- |
| GLLQFIVFLL | 242 |
| ALIAVSIISI | 246 |

Same assay, conditions: source organism: Vaccinia virus WR

| Sequence | IC50 [nM] |
| --- | --- |
| TIDQTANVV | 549 |
| KLQAAPYIV | 1.2 |
| SLLVAPMPT | 935 |
| IILVIIVVI | 418 |
| KINPTLDNI | 244 |
| LLSAINFKI | 0.54 |
| KLFYVYYNL | 0.49 |
| SLVEMMWDL | 11 |
| YTYFSNTILL | 189 |
| KQDISLKRNA | 778 |
| IVVELEPSL | 2110 |
| FLHNYILYA | 0.54 |
| FVIVIYIFT | 3470 |
| TLAPFNFLV | 0.22 |
| YTDSIQDLL | 933 |
| HLIKIPLLI | 1.9 |
| TINCDVGYEV | 385 |
| NIEKYFTFLV | 1450 |
| SLFSLLLVI | 5.8 |
| ETYHLIDYET | 3180 |
| EIIPSSIPV | 4650 |
| CMSANEAAI | 16 |
| KISLDISQL | 2280 |
| FMLPKQDIV | 4.9 |
| QAIMESDSFL | 67 |

| Sequence | IC50 [nM] |
| --- | --- |
| AIYSAILLLV | 53 |
| FLDNECHTI | 0.78 |
| GLADAFILL | 13 |
| KTITTCYLM | 445 |
| LIVRYLIQV | 13 |
| FTLTGSPSST | 4460 |
| TVMVKINPTL | 114 |
| LVASLNPNM | 387 |
| ALLVATDPDA | 606 |
| KLRPNSFWFV | 2 |
| FINFFNLLA | 726 |
| RLKSSQTIEL | 338 |
| ALVASLNPNM | 1330 |
| AIIPLSASV | 14 |
| IQESFIRFTV | 17 |
| YQMLLALVAL | 1.5 |
| VTLLCVLPA | 76 |
| MASPENVIL | 846 |
| IIIPFIAYFV | 1.2 |
| FTSSFYNYV | 0.46 |
| VIDEILFKV | 1.3 |
| DMTKVDVEL | 3990 |
| VMNNLSELT | 2080 |
| KLFFAKCLV | 23 |
| ILLLIGICVA | 683 |

| Sequence | IC50 [nM] |
| --- | --- |
| KIIKKMEDMV | 2670 |
| IAISSLNKL | 1500 |
| YLCTFMIIT | 87 |
| HMYFTFFDV | 9.1 |
| NLFTFLHEI | 1.1 |
| TLVAIFSYI | 863 |
| FMAYTTSHI | 3.2 |
| QIFEVYWYL | 11 |
| NTFYLFTFTI | 55 |
| YLIKLIEPV | 8 |
| QLLEAVYGNI | 199 |
| FTPRDNETV | 877 |
| LMSNIKTMMI | 1560 |
| KLLISKGIEI | 132 |
| RLNDFLGLL | 11 |
| TMLSIILVI | 1.4 |
| GLDVKNVQLV | 313 |
| VLLTYFCFV | 0.28 |
| NLLLWPLYV | 0.12 |
| IVSVSESNI | 2350 |
| IVIEAIHTV | 1410 |
| MLPKQDIVGL | 96 |
| ILQISQCQRI | 2600 |
| NTFYLFTFT | 492 |
| KMCTVSDYI | 36 |

| Sequence | IC50 [nM] |
| --- | --- |
| SLSKQDISL | 67 |
| KLTDSLSSQM | 935 |
| YLVIYLNRT | 819 |
| KLQAAVMET | 363 |
| FTLNHVLAL | 1.5 |
| RLSLNRTIV | 849 |
| VMKLFTISV | 8 |
| TMLSIILVII | 154 |
| ILVCYILYI | 19 |
| GLIACLIFV | 7.7 |
| YLLCCNYKL | 0.36 |
| IIDKDTNSV | 62 |
| DALATFTVNI | 178 |
| SIFINKLNGA | 1820 |
| RINDDSKSIL | 4360 |
| STAVNEEWL | 4690 |
| YISELYNKPL | 626 |
| SIYECITFL | 77 |
| PVLMFLLFYV | 69 |
| FVNKHLPTM | 1590 |
| QTCAGVIEYA | 359 |
| ELIAFSSGTV | 997 |
| LVDAIDNIV | 37 |
| KLYTIVSTL | 15 |
| GVSKKNIWL | 3160 |

| Sequence | IC50 [nM] |
| --- | --- |
| LLFDRDTFYI | 0.4 |
| VMAYVGIKL | 1300 |
| KVTRFYFNM | 95 |
| HIIIVALTIM | 1670 |
| LLSQYLSRV | 1 |
| SIINRDIIV | 699 |
| ALVALVITI | 1.9 |
| TLFLLFLEI | 56 |
| GLDLENLYA | 117 |
| RLLDLFGPEV | 0.98 |
| RIDMIDNLNI | 2550 |
| NMNYSDDYMM | 2640 |
| LIVLFEVFVV | 2070 |
| LLVAPMPTA | 13 |
| ITLSLSKQDI | 211 |
| ILYDNVVTL | 0.51 |
| NIYCLEYINT | 882 |
| TMSAFLIVRL | 448 |
| NLYDDNDIRT | 40 |
| TLTNVVNIST | 1240 |
| FVFAWFNGV | 0.38 |
| VLVDNVDFA | 20 |
| YLKIGTLLV | 17 |
| FQQPQFQYL | 48 |
| FLKYSRSKPA | 3540 |

| Sequence | IC50 [nM] |
| --- | --- |
| FLTAALPVKL | 384 |
| ITLTNVVNI | 927 |
| YVKTLLISM | 1890 |
| KMAGGIGLSI | 9.7 |
| IMYTYFSNTI | 99 |
| KLDYWSFQL | 2.1 |
| FLVGVAIILV | 7.6 |
| KVFFGPIYYL | 18 |
| FMASPENVIL | 1070 |
| CIDGKWNPVL | 1860 |
| LILSLTCSV | 1.3 |
| AMFTTMYNI | 2.8 |
| NLNIVRDMLV | 28 |
| SMDTLLFFL | 1 |
| GTINRILVIT | 1230 |
| YAYGWIPET | 43 |
| LLPGFVLTCI | 3.7 |
| YLLAVCGCI | 13 |
| HIFMASPENV | 97 |
| LMYDIINSV | 1.8 |
| YLVDVETIGV | 0.17 |
| QTANVVFRYM | 729 |
| SVSESNIDL | 569 |
| TLDNILGIL | 67 |
| ITLYDFDYYI | 29 |

| Sequence | IC50 [nM] |
| --- | --- |
| CLCSFHNDAI | 2880 |
| LVFIKPPLI | 55 |
| YIIDWMVDI | 0.92 |
| ILSPPINAPI | 38 |
| RVYKTIWEI | 285 |
| SLHSLSVETI | 95 |
| AVTKTDGIPI | 1460 |
| KLFFAKCLVV | 2.3 |
| SLSLHPLYV | 9.8 |
| HMNEIRINI | 670 |
| YLGMFNPYSL | 0.16 |
| TTTSEVVDML | 2520 |
| LMEVFPQLDL | 244 |
| SLYDQKEINA | 267 |
| EILGIAHLL | 4330 |
| KTISVVTLL | 287 |
| IVWEKKSLV | 2.1 |
| LMPIRTDTT | 2170 |
| YLVPNVIGGV | 0.61 |
| TIIFVLISI | 1180 |
